Source: patent publication US20220298237A1 (KEIO UNIVERSITY, published 2022)
Substitutions are numbered along the chain they refer to. Each block holds one binder with its values, some of them ahead of it.

How the values were obtained:
[1] = target: T1, oligopeptide ATYPSGHLDM (SEQ ID NO: 1) (human and mouse); assay: ELISA on the immunogen peptide (FIG. 2)
T1 construct: Synthetic peptide; positions 148 to 157 of the human AQP3 polypeptide, identical in mouse; also called peptide used for immunization; oligopeptide 5
T1 peptide: ATYPSGHLDM

[2] = target: T2, mouse AQP3 in lysate of HEK293T cells overexpressing mouse AQP3 and a myc-biotinylated tag (mouse, UniProt Q8R2N1 1-292); assay: ELISA on lysate of HEK293T cells overexpressing mouse AQP3 (FIG. 3)
T2 construct: Cell lysate used in ELISA; also called AQP3 containing cell lysate; not shown: myc-biotinylated tag
T2 sequence (looked up): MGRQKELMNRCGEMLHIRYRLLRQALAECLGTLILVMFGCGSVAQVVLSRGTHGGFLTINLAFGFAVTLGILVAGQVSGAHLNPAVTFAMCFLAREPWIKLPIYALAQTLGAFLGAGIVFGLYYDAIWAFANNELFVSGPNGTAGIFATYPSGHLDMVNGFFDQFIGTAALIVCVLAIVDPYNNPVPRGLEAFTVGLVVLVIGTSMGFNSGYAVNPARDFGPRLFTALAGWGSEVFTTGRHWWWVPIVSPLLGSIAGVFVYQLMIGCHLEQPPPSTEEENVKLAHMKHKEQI
Text: Cell lysate from HEK293T cells overexpressing mouse AQP3 and a myc-biotinylated tag was used in an ELISA assay to measure the binding of antibodies A, B, C, D, E, F, G, H, J, and K to AQP3. Cell lysate from HEK293T cells overexpressing the myc-biotinylated tag but not AQP3 was used as control. […] C. Antibody binding to AQP3 expressing cells

[3] = target: T3, human aquaporin 3 (AQP3) on cells (human, UniProt Q92482 1-292); assay: fluorescence binding assay on HaCaT cells, 10 µg/mL (FIG. 5C)
T3 construct: whole, on cells; Water channel membrane protein; also called human AQP3; AQP3 on HaCaT cells
T3 sequence (looked up): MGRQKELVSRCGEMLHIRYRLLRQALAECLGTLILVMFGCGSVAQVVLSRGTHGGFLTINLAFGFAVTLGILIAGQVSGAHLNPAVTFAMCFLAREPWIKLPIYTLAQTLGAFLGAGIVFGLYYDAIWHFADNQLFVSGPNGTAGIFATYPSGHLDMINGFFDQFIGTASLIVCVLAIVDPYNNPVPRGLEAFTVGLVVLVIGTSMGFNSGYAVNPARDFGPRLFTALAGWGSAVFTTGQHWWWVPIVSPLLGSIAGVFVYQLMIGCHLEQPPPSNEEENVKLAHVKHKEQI

[4] = target: T4, mouse aquaporin 3 (AQP3) on cells (mouse, UniProt Q8R2N1 1-292); assay: fluorescence binding assay on PAM212 cells, 10 µg/mL (FIG. 5B)
T4 construct: whole, on cells; Water channel membrane protein; also called mouse AQP3; AQP3 on PAM212 cells
T4 sequence (looked up): T2 sequence (looked up)
Description: PAM212 and macrophage cells were reacted with each anti AQP3 antibody (0.1, 1, or 10 μg/mL) at 4° C. for 1 hour. After washing the cells, a fluorescent-labeled secondary antibody was added and the reaction was allowed to occur additionally for 1 hour (4° C.). By measuring the fluorescence intensity, the binding property of each anti AQP3 antibody to cells was obtained.
The assay was also performed using PAM212 cells and antibodies A, B, C, D, E, F, G, H, and J at a concentration of 10 μg/mL. Binding of antibodies C, D, E, G, and J to PAM212 cells was statistically significant.

[5] = target: T1, oligopeptide ATYPSGHLDM (SEQ ID NO: 1); assay: ELISA on coated peptide
Description: (§1) To determine the important amino acid residues of an epitope in Loop C involved in binding to specific AQP3 antibody clones, peptides of varying lengths were produced. The sequences of these peptides are shown in column 2 of Table 4.
(§2) The various peptides and AQP3 antibody clones were subjected to ELISA binding analyses. […] The microtiter wells (Costar 2690) were coated with 50 μL of each peptide at 4° C. overnight. The wells were washed 3 times with PBS and blocked with 100 μL of 1% BSA/PBS at 37° C. for 1 hour. Each antibody was adjusted to 1 μg/mL in 1% SBA/PBS as above then serially diluted 1:5 in 1% BSA/PBS. The blocker was discarded and the wells were incubated with 50 μL of antibodies at 37° C. for 1.5 hours. The wells were washed 3 times with PBS and mouse antibodies were detected with 50 μL of goat anti-mouse IgG (H+L) HRP conjugate (ThermoFisher 31438) (1:5,000 in 1% BSA/PBS) and rabbit antibodies were detected with 50 μL of goat anti-rabbit IgG (H+L) HRP conjugate (ThermoFisher 31462) (1:5,000 in 1% BSA/PBS) at 37° C. for 1 hour. The wells were washed 3 times with PBS and developed with 50 μL of HRP substrate at RT for 5 min then stopped with 50 μL of 2N sulfuric acid and binding was measured with a plate reader.

[6] = target: T5, oligopeptide SGPNGTAGIFATYPS (SEQ ID NO: 94); assay: ELISA on coated peptide
T5 construct: Synthetic peptide, part of Loop C of AQP3
T5 peptide: SGPNGTAGIFATYPS
Description: as §1, §2

[7] = target: T6, oligopeptide TYPSGHLDM (SEQ ID NO: 96); assay: ELISA on coated peptide
T6 construct: Synthetic peptide, part of Loop C of AQP3
T6 peptide: TYPSGHLDM
Description: as §1, §2

[8] = target: T7, oligopeptide YPSGHLDM (SEQ ID NO: 97); assay: ELISA on coated peptide
T7 construct: Synthetic peptide, part of Loop C of AQP3; first diluted in DMSO
T7 peptide: YPSGHLDM
Description: as §1, §2

[9] = target: T8, oligopeptide PSGHLDM (SEQ ID NO: 98); assay: ELISA on coated peptide
T8 construct: Synthetic peptide, part of Loop C of AQP3
T8 peptide: PSGHLDM
Description: as §1, §2

[10] = target: T9, oligopeptide SGHLDM (SEQ ID NO: 99); assay: ELISA on coated peptide
T9 construct: Synthetic peptide, part of Loop C of AQP3
T9 peptide: SGHLDM
Description: as §1, §2

[11] = target: T10, oligopeptide GHLDM (SEQ ID NO: 100); assay: ELISA on coated peptide
T10 construct: Synthetic peptide, part of Loop C of AQP3
T10 peptide: GHLDM
Description: as §1, §2

[12] = target: T11, oligopeptide ATYPSGHLD (SEQ ID NO: 101); assay: ELISA on coated peptide
T11 construct: Synthetic peptide, part of Loop C of AQP3
T11 peptide: ATYPSGHLD
Description: as §1, §2

[13] = target: T12, oligopeptide ATYPSGHL (SEQ ID NO: 102); assay: ELISA on coated peptide
T12 construct: Synthetic peptide, part of Loop C of AQP3
T12 peptide: ATYPSGHL
Description: as §1, §2

[14] = target: T13, oligopeptide ATYPSGH (SEQ ID NO: 103); assay: ELISA on coated peptide
T13 construct: Synthetic peptide, part of Loop C of AQP3
T13 peptide: ATYPSGH
Description: as §1, §2

[15] = target: T14, oligopeptide ATYPSG (SEQ ID NO: 104); assay: ELISA on coated peptide
T14 construct: Synthetic peptide, part of Loop C of AQP3
T14 peptide: ATYPSG
Description: as §1, §2

[16] = target: T15, oligopeptide TAGIFATYPSGHLDM (SEQ ID NO: 105); assay: ELISA on coated peptide
T15 construct: Synthetic peptide, part of Loop C of AQP3
T15 peptide: TAGIFATYPSGHLDM
Description: as §1, §2

[17] = target: T16, oligopeptide AGIFATYPSGHLDM (SEQ ID NO: 106); assay: ELISA on coated peptide
T16 construct: Synthetic peptide, part of Loop C of AQP3
T16 peptide: AGIFATYPSGHLDM
Description: as §1, §2

[18] = target: T17, oligopeptide GIFATYPSGHLDM (SEQ ID NO: 107); assay: ELISA on coated peptide
T17 construct: Synthetic peptide, part of Loop C of AQP3
T17 peptide: GIFATYPSGHLDM
Description: as §1, §2

[19] = target: T18, oligopeptide IFATYPSGHLDM (SEQ ID NO: 108); assay: ELISA on coated peptide
T18 construct: Synthetic peptide, part of Loop C of AQP3
T18 peptide: IFATYPSGHLDM
Description: as §1, §2

[20] = target: T19, oligopeptide FATYPSGHLDM (SEQ ID NO: 109); assay: ELISA on coated peptide
T19 construct: Synthetic peptide, part of Loop C of AQP3
T19 peptide: FATYPSGHLDM
Description: as §1, §2

[21] = target: T1, oligopeptide ATYPSGHLDM (SEQ ID NO: 1); assay: ELISA on peptide SEQ ID NO:1, IgG, 50% binding response (FIG. 16A)

B1: Antibody K (antibody, mouse IgG2a, kappa, V domains shown)
VH: QVQLKQSGAELVRPGTSVKVSCKASGYAFTNYLIEWVKQRPGQGLEWIGVINPGSGGTNYNEKFKGKATLTADKSSSTAYMQLSSLTSEDSAVYFCARWGFYYAMDYWGQGTSVTVSS
VL: DIVMTQSPSSLSASLGERVSLTCRASQEISGYLSWLQQKPDGTIKRLIYAASTLDSGVPKRFSGSRSGSDYSLTISSLESEDFADYYCLQYASYPLTFGAGTKLEIKR
notes: also called anti AQP3 antibody K
binding result [1]: binds
binding result [2]: binds

B4: Antibody D (antibody, mouse IgG2a, kappa, V domains shown)
VH: EVQLQQSGAELVRPGASVTLSCKASGYTFTDYEMHWVQQTPVHGLEWIGGIDPETGGTGYNQKFKGKAILTADKSSSTAYMELRSLTSEDSAVYFCTRHGSYAMDYWGQGTSVTVSS
VL: DIVMTQSPKFMSTSVGDRVSITCKASQDVSTAVAWYQQKPGQSPKLLIYWASTRHTGVPDRFTGSGSGTDYTLTISSVQAEDLALYYCQQHYSTPPTFGGGTRLEIKR
notes: also called anti AQP3 antibody D
binding result [3]: binds
binding result [4]: binds
binding result [2]: binds

B5: Antibody A (antibody, mouse IgG2a, kappa, V domains shown)
VH: QVQLQQPGAELVRPGASVTLSCKASGYTFTDYEMHWVKQTPVHGLEWIGGVDPETGGTGYNQKFRGKAILTADKSSSTAYMELRSLTSEDSAVYYCARHGGSFYAMDYWGQGTSVTVSS
VL: B4 VL with R103K, I106L
notes: also called anti AQP3 antibody A
binding result [2]: binds

The remaining lines, values ahead:

binding result [1]: binds
binding result [2]: binds
B2: Antibody B (antibody, mouse IgG2a, kappa, V domains shown)
VH: EVQLVESGGDLVKPGGSLKLSCAASGFTFSSYGMSWVRQTPDKRLEWVATISRGSIYTYYPDSVKGRFTISRDNAKNTLYLQMSSLKSEDTAMYYCARLSLYDYDGARYTMDYWGQGTSVTVSS
VL: DIVMTQSPKFMSTSVGDRVSITCKASQDVGTAVAWYQQKPGQSPKLLIYWASTRHTGVPDRFTGSGSGTDFTLTISNVQSEDLADYFCQQYSSYHTFGAGTKLELKR
notes: also called anti AQP3 antibody B

binding result [2]: binds
B3: Antibody F (antibody, mouse IgG2a, kappa, V domains shown)
VH: QVQLKESGPELVKPGASVKISCKASGYTFTDYYINWVKQRPGQGLEWIGWIFPGSGSTYYNEKFKGKATLTVDKSSSTAYMLLSSLTSEDSAVYFCADYGSSYRYFDVWGAGTTVTVSS
VL: DIVMTQSPAILSASPGEKVTMTCRASSSVSYMHWYQQKPGSSPKPWIYATSYLASGVPARFSGSGSGTSYSLTIGRVEAEDAATYYCQQWSSNPLTFGAGTKLELKR
notes: also called anti AQP3 antibody F; Antiboy F

binding signal (plate reader) [5]: 2.21
binding signal (plate reader) [6]: 0.045
binding signal (plate reader) [7]: 1.79
binding signal (plate reader) [8]: 1.58
binding signal (plate reader) [9]: 0.271
binding signal (plate reader) [10]: 0.048
binding signal (plate reader) [11]: 0.043
binding signal (plate reader) [12]: 2.52
binding signal (plate reader) [13]: 1.69
binding signal (plate reader) [14]: 0.047
binding signal (plate reader) [15]: 0.044
binding signal (plate reader) [16]: 2.81
binding signal (plate reader) [17]: 2.97
binding signal (plate reader) [18]: 2.92
binding signal (plate reader) [19]: 2.8
binding signal (plate reader) [20]: 2.8
binding result [3]: binds
binding result [4]: binds
EC50 [21]: ~0.1 µg/mL
binding result [2]: binds
B6: Antibody C (antibody, mouse IgG2a, kappa, V domains shown)
VH: QVQLKQSGAELARPGASVKLSCKASGYNFKSYGISWVKQRTGQGLEWIGEIYPGSGNTYYNEKLKGKATLTADKSSSTAYMELRSLTSEDSAVYFCARTYGYDSFPWFAYWGQGTLVTVSS
VL: DIVMTQAAPSVPVTPGESVSISCRSSKSLLHSNGNTYLYWFLQRPGQSPQLLIYRVSNLASGVPDRFSGSGSGTAFTLRISRVEAEDEGVYYCMQHLEYPFTFGAGTKLEIKR
notes: also called anti AQP3 antibody C

binding result [1]: binds
binding result [3]: binds
binding result [4]: binds
binding result [2]: binds
B7: Antibody E (antibody, mouse IgG2a, kappa, V domains shown)
VH: EVKLLESGAELVRPGASVTLSCKASGYTFTDYEMHWVKQTPVHGLEWIGGIDPESGGTGYNQKFKGKAILTADKSSSTAYMELRSLTSEDSAVYFCTRSGYYGSPLLDYWGQGTTLTVSS
VL: QIVLSQSPAIMSASLGERVTMTCTASSSVSSSYLHWYQQKPGSSPKLWIYSTSNLASGVPARFSGSGSGTSYSLTISSMEAEDAATYYCHQYHRSPPTFGAGTKLEIKR
notes: also called anti AQP3 antibody E; Antiboy E
